Laboratory results taken from the nanobody polyreactivity screen of Harvey et al. (2022).

Experiment: yeast display, Sf9 membrane polyspecificity reagent, FACS + sequencing; frameworks hold sequencing errors
Outline: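 Genes from sorted yeast were amplified by colony PCR, read by MiSeq 2 × 250 sequencing and filtered on CDR length. These cells carried a synthetic nanobody library in Saccharomyces cerevisiae BJ5465 and were sorted by FACS into low and high (top ~1%) gates on anti-HA and streptavidin fluorescence. Polyreactivity is labelled according to the gate of origin.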

| Sequence | polyreactivity (PSR sort gate) |
| --- | --- |
| QVQLVESGGGLVQAGGSLRLSCAASGRIINDYTMGWYRQAPGKERELVAAITTSTGSTYADSVKGRFTISRDNAKNTVYLQMNSLKPEDTAVYYCAADSRPGKYYEDDSWGQGTQVTVSS | low polyreactivity |
| QVQLVESGGGLVQAGGSLRLSCAASGSIFLSYAMGWYRQAPGKERELVAAITGSGGSTYYADSVKGRFTISRDNAKNTVYLQMNSLKPEDTAVYYCARRRHHVIWYGYWGQGTQVTVSS | low polyreactivity |
| QVQLVESGGGLVQAGGSLRLSCAASGITFYDYAMGWYRQAPWKERELVAAISFSGSRTYYADSVKGRFTISRDNAKNTVYLQMNSLKPEDTAVYYCAASQARNYKIYDYWGQGTQVTVSS | high polyreactivity |
| QVQLVESGGGLVQAGGSLRLSCAASGLIFYRYAMGWYRQAPGTEREMVAAITTNGARTYYADSVKGRFTISRDNAKNTVYLEMNSLKPEDTAVYYCAAYGAGKFWADHNYWGQGTQVTVSS | high polyreactivity |
| QVQLVESGGRLVQAGGSLRLSGADSGSIFSSYAMGWNRPAPGKERELVAAISSSGDSTYADSEKGRFTISRDNAKNSVDLQMNSLKPEDTAVYYCAVGGAGSDDYWGQGTQVTVSS | low polyreactivity |
| QVQLVESGGGLVQAGGSLRLSCAASGFIFRGNAMGWYRQATGKERELVAGIRSLGGTTSYADSVKVRFTISRDNAKNTVYLQMNSLKPDDSGVYYCAAGYGADFDYWGQGTQVTVSS | low polyreactivity |
| QVQLVESGGGLVQAGGSLRLSCAASGFIFSYYAMGWYRQAPGKERELVAAITWSGGGTYYADSVKGRFTISRDNAKNTVYLQMNSLKPEDTAVYYCAAERVYPDGEYWGQGTQVTVSS | high polyreactivity |
| QVQLVESGGGLVQAGGSLRLSCAASGRIFGSNAMGWYRQAPGKERELVATITKNGTSTYYADSVKGRFTISRDNAKNTVYLQMNSLKPEDTAVYYCARAPLRYSSRYEYWGQGTQVTVSS | low polyreactivity |
| QVQLVESGGGLVQAGGSLRLSCAASGSTFTRNAMGWYRQAPGKERELVAAISSRGTSTYYADSVKGRFTISRDNAKNTVYLQMNSLKPEDTAVYYCAAVGVKQYLGGNPFDYWGQGTQVTVSS | high polyreactivity |
| QDQLVESGGGLVQAGGSLRLSCAASGSLFDLYAMGWYRQAPGKERELVAAISWSDSRTYYADSVKGRFTISRDNAKNTVYLQMNSLKPEDTAVYYCAADYRYPDNYGGYDYWGQGTQVTVSS | low polyreactivity |
| QVQLGESGGGLVQAGGSLRLSCAASGFIFFYYAMGRYRQAPGKERELVAVNTRGGSTYYADSVKGRFTISRDNAKNTVYLQMNSLKPVDTAVYYCAAGIFYYRYYQVDYWGQGTQVTVSS | high polyreactivity |
| QVQLVESGGGLVQAGGSLSLSCAASGSTFAYYAMGGYRQAPGKERELVAGITWTGGSTYYADSVKGRFTISRDNAKNTVYLQMNSLKPEDTAVYYCAVTYPYGYEYDHWGQGTQVTVSS | low polyreactivity |
| QVQLVESGGGLVQAGGSIRLSCAASGFNFRWYAMGWYRQAPGKERELVAAIRSGGSTNYADSVKGRFTIARDNAKNTVSLQMNSLKPEDRAVYYCAAERTSYYYSNDYWGQGTQVTVSS | high polyreactivity |
| QVQLVESGGGLVQAGGSLRLSCAASGYTCGPYAMGWYRQAPGKERELVAAITTRGGSTYYADSVKGRFTISRDNAKNTVYLQMNSLKPEDTAVYYCAAVVNSKSIQRVVRYYYWGQGTQVTVSS | high polyreactivity |
| QVQLVESGGGLVQAGGSLRLSCAASGIIFYHNAMGWYRQAPGKERELVASITEIGGSTYYADSVKGRFTISRDNAKNTVYILMNSLKPEDTAVYYCAAGTLTSFSRYDYWGQGTQVTVSS | low polyreactivity |
| QVQLVESGGGLVQAGGSLRLSCAASGRIFGVNAMGRYRQAPGKERELVAAIDWSDGSTYYADSVKGRFTISRDNAKNTVYLQMNSLKPEDTAVYYCAALPSFLAAQYGDDYWGQGTQVTVSS | low polyreactivity |
| QVQLVESGGGLVQAGGSLRLSCAASGRIFWRNTMGWYRQAPGKERELVAAITRTGGSTYYADSVKGRFTISRDNAKNTVYLQMNSLKPEDTAVYYCAVYARWYGYGYGYWGQGTQVTVSS | high polyreactivity |
| QVQLVESGGGLVQAGGSLRLSCAASGIFTYNAMGWYRQAPGKERELVASITRGGSTNYADSVKGRFTISLDNAKNTVYLQRNSLKPEDTAVYYCAARVRVYSGWLYNYWGQGTQVTVSS | high polyreactivity |
| QVQLVESGGGLVQAGGSLRLSCAASGSIFGGYAMGWYRQAPGNERELVAAITYSAGNTYYADSVKGRFTISRDNAKNTVYLKMKSLKPEDTAVYYCAARTYRGPQYQYGNNYWGQGTQVTVSS | high polyreactivity |
| QDQLVESGGGLVQAGGSLRLSCAASAIIFYYYAMGSYRQAPGKERELVAAISSSGGRTRYADSVKGRVTISRDNAKNTVYLLMNRLKPEDTAVYYCAAEFIRGYGESYDYWGQGTQVTVSS | low polyreactivity |
| QVQLVESGGGLVQAGGSLRLSCAASGLIFYHNAMRWYRQAPGKERELVAAMTASGGSTYYADSVKGRFTISRDNAKNTVYLQMNSLKPEDTAVYYCAADGPLDSDLDYWGQGTQVTVSS | low polyreactivity |
| QVQLVESGGGLVQAGGSLRLSCAASGSNLATYTMGWYRQEPGKERELVAAISFGGSTYYADSVKGRFTISRDNAKNTDYLQMNSLKPEDTAVYYCAVYGDSYWGAYYYSDGYWGQGTQVTVSS | low polyreactivity |

| Sequence | polyreactivity (PSR sort gate) |
| --- | --- |
| QVQLVESGGGLVQEGGSLRLSCAASGFIFVTNAMGWYRQAPGKERELVAAITIGDSTYYADSVKGRFTISRDNAKNTVYLQMNSLKPEDTAVYYCAAEVGFGPGFSTIAYTFDYWGQGTQVTVSS | low polyreactivity |
| QVQLVESGGGLVQAGGSLRLSCAASGRTFRKYAMGWYRQAPGTERELVAAISWSGGSTYYANSVKGRFTISRDNAKNTVYLQMNSLKPEDTAVYYGAAVPVHNGSLYWGFTTGYDYWGQGTQVTVSS | low polyreactivity |
| QVQLVESGGGLVQAGGSLRLSCAASGSIFGPYVMGWYRQAPGKERELVAAITFSGGSTYYADSVKGRFTISRDNAKNTVYLQMNSLKPEDTAVYYCNARPYSYRGSKRMYYWGQGTQVTVSS | high polyreactivity |
| QVQLVESGGGLVQAGGSLRLICAASGRTFGVNAMGWYRQAPGKERELVASIRWNGGSTYYADSVKGRFTISRDNAKNTVYLQMNSLKPEDTAVYYCNAVRRYRSREFDYWGQGTQVTVSS | low polyreactivity |
| QVQLVESGGGLVQAGGSLRLSCAASGRIIGFYAMGRYRQAPGKERELFAAINTGGGTNYADSVKGRFTISRDNAKNTVYLQMNSLKPEDTAVYYCAARTYDYRARHKVGYWGQGTQVTVSS | high polyreactivity |
| QVQLQESGGGLVQAGGSLRLSCAASGYISAGRQMGWYRQAPGKEREFVATINGGATTNYADSVKGRFTISRDNAKNSVFLQMNSLKPEDTAVYYCAAVIWYVQDYSYWGQGAQVTVSS | high polyreactivity |
| QVQLVESGGRLVQAGGTLRLSCAASGRNVGLYAMGWSRQAPGKERELVAAISSTGRTTYADSVKGRFTISRDNAKNNVYLQMNSLIPEVTAVYYCKADARSVCWYYYACLFDYWGQGTQGTVSS | low polyreactivity |
| QVQLVESGGGLVQAGASLRLSCAASGNIFGLYAMGWYRPAPGKERELVAAISDGVSTNYADSVKGRFTISRDNAKITVYLQMNSLKPEDTAVYYCAADQEGYGNWDSEYDYWGQVTQVTVSS | low polyreactivity |
| QVQHVESCGGLVQAGGSLRLSCADSGRIFGDYVMGWYRQAPGKERELVASIDTSGGSTYDADSVKGGFTISRDIAKNTVYLQMNSVKPEDSAVYYCAAERKYFVFVYYQGWYDYWGQGTQVTVSS | low polyreactivity |
| QVQLVESGGGLDQAGGSLRLSCAASGFTFYPYTMGWYRQAPGKERELVADITYDSTYYADSVKGRFTISRDNAKNTVFLQMNSLKPADTAVYYCNATGYSVSRSAYWYGWYDYWGQGTQVTVSS | low polyreactivity |
| QVHLVESGGGLVQAGGSLRLSCAASGRTFGRKAMGWYRQAPGKERELVASITKRGGSTYYADSVKGRFTISRDNAKNTVYLQMNSLKPVDTAVYYCAVEAYDYWGQGTQVTVSS | high polyreactivity |
| QVQLVESGGGLVQAGGSLRLSCAASGTTISNYAMGWYRQAPGKERELVAGIDWSGGSTYYADSVKGRFTISRDNAKNTVYLHMNSLKPEDTAVYYCAKRVWYHGRKLRGYYWGQGTQVTVSS | low polyreactivity |
| PVQLVESGGGLVQAGGSLRLSCAASGRIFPSYAMGWYRQAPGKERELVATINGDGGSTYYADSVKGRFTISRDNAKNTVYLQMNSLKPEDTAVYYCAKRYPFAAEYDYWGQGTQVTVSS | low polyreactivity |
| QVQLVESGGGLVQAGGSLRLSCASSGRIFDGNAMGWYRQAPGKERELVAAISWTGGSTYYADSVKGRFTISRDNAKNTVYLQMYSLKPVDTAVYYCAADSGWWLDQWSWYDYWGLGTQVTVSS | low polyreactivity |
| QVQLVESGGGLVQAGGSLRLSCAASGRTFAFYTLGWYRQAPGKERELVAAITRNGSTSYADSVKGRFTISRDNAKNTVFLQMNRLKPEDTAVYYCATVGYPYTLWHQMDYWGQGTQVTVSS | low polyreactivity |
| HVQLVESGGGLVQAGGSLRLSCAASGPTFVTNAKGWYRQAPGKERELVAAISRSGGHTYYADSVKGRFTISRDIAKNTVYLQMNSLKPEDTAVYYCAKNRGPRTLYDYWGQGTQVTVSS | high polyreactivity |
| QFQLVESGGGLVQAGGSLRLSCAASGSIFDIYAMGWYRPAPGKERELVADITISGGSTYYADSVKGRFTISRDNAKNTVYLQLNSLIPEDTAVYYCAADVTVVLGYKYDYWGQGTQVTVSS | low polyreactivity |
| QVQLVESGGVLVQAGGSLRLSCAASGSISSVYAMGWYRQAPGKDRELVAGITSGGSTNYADSVKGRFTISRDNAKITVYLQMNSLKPEDTAVYYCAAVYKGAGTHFDVFVKEFDYWRQGTQVTVSS | low polyreactivity |
| QVQLVESGGGLVQAGGSLRLSCAASGFIFSYYAMGWYRQAPGKERELVAAISRNGGRTYYADSVKGRFTISRDNAKNTVYLQMNSLIPEDTAVYYCAATTYRTSSYIRYGSPKHDDYWGQGTHVTVSS | high polyreactivity |
| QVQLVDSAGGLVQAGGSLRLSCAASGLNYAIYAMGWYREAPGKERELVAAIRWSGASTYADSVKGRFTISRDNAKNTVYLQMNSLKPEDTAVYYCAADDLLDYDYWGQGTQVTVSS | low polyreactivity |
| QVQLVESGGGLVQAGGSLRLSCAASGGTFWYYDMGWYRQAPGKERELVAAISSGGNTYYADSVKGRFTISRDNAKNTVYLQMNSLKREDNAVYYWAALPKYGSYYYYPPFDYDYWGHGTQVTVSS | low polyreactivity |
